Experiments:
[1] = system: PLO-induced epilepsy in mice; assay: Pilocarpine (PLO) induced convulsive epilepsy in mice; type: in vivo, ICR mice; parameters: mortality rate: unit not given here; conditions: for Cases of deaths / Grade IV seizure rate / mortality rate / Cases of Grade IV / Grade II seizure incubation period / Grade III seizure incubation period / Grade IV seizure incubation period: PLO 225 mg/kg i.p.; for Cases of deaths / Grade IV seizure rate / mortality rate / Cases of Grade IV: 10 mice; for Cases of Grade IV: 30 min observation; for Grade II seizure incubation period / Grade III seizure incubation period / Grade IV seizure incubation period: mean±SEM; for Grade IV seizure incubation period: maximum 1800 seconds
Description: • Animals: male ICR mice; • Drugs: Pilocarpine HCl (PLO, pilocarpine, pilocarpine hydrochloride), Diazepam (diazepam tablets), protein BD-6. • Experiment grouping: • Model group: • Diazepam 2 mg/kg group; • Protein BD-6, 50 mg/kg group, 200 mg/kg group.
The drug was administered once in the afternoon the day before modeling, PLO-225 mg/kg (modeling agent) was injected intraperitoneally 1 hour after the test drug was administered intragastrically on the day of modeling. And positive drug can be administered once 20 minutes before modeling. Observe for 30 minutes after PLO injection.
Observation indicators: ①Seizure situation: the time of seizures from Grade II to Grade IV; ②the time to death.
Seizure grade: Refer to Racine grading standard: Grade 0: No response; Grade I: manifested as twitching of facial muscles or the corners of the mouth; Grade II: can nod; Grade III: twitching of one limb; Grade IV: rigidity or body twitching; Grade V: generalized epilepsy (generalized tonic seizures).
Count the number of Grade IV seizures and deaths in each group of mice in the experiment; Grade II, III and IV incubation period. […] Chi-square test was used for statistics of the number of cases. The mean value and standard error of the incubation period were calculated, and TTEST was used to compare the model group with other groups. P<0.05 was considered as a significant difference.

[2] = system: acetic acid writhing of ICR mice; assay: Acetic acid writhing test in ICR mice; type: in vivo; conditions: for Frequency of writhing / Writhing incubation period: 0.6% acetic acid i.p., within 15 minutes
Description: • Animals: male ICR mice; • Drugs and reagents: aspirin, physiological saline, glacial acetic acid, protein BD-6. • Experiment grouping: • Model group; • Aspirin 300 mg/kg group; • Protein BD-6, 50 mg/kg group, 200 mg/kg group.
One day after the experimental animals adapt to the environment, Aspirin 300 mg/kg, protein BD-6 50 mg/kg, 200 mg/kg were given orally one hour in advance, and the administration volume was 10 ml/kg; Then, 0.6% acetic acid solution was injected intraperitoneally, and the incubation period (seconds) and frequency of writhing in the animal was observed within 15 minutes.
Calculate the mean and standard error of the data in each group. Compared with the model group by TTEST, P<0.05 was considered as statistically different.

[3] = system: phenol red excretion method in mice; assay: Expectorant test, phenol red excretion method in mice; type: in vivo, ICR mice; conditions: for Phenol red excretion: X±SEM, N=10
Description: • Animals: male ICR mice; • Drugs and reagents: Mucosolvan (ambroxol hydrochloride tablets), phenol red, sodium bicarbonate, protein BD-6; • Instruments: centrifuge (Sigma-3K15 type), balance (XS105DU type), Microplate tester (BIO-TEK type). • Experiment grouping: • Solvent control group; • Mucosolvan 30 mg/kg group; • Protein BD-6, 20 mg/kg group, 50 mg/kg group.
The animals were fasted and water was taken freely 16 hours before the experiment. Orally administered Mucosolvan and different doses of protein BD-6 (administration volume 10 ml/kg) in groups, and the solvent control group was given the same volume of distilled water. One hour later, 2.5% phenol red solution was injected intraperitoneally. Mice were sacrificed by neck dislocation after 30 minutes. Take a trachea from below the thyroid cartilage to the branch of the trachea, and put the trachea into 3 ml 5% NaHCO3 solution and let it stand for 3 hours. Take 1 ml of the supernatant and centrifuge at 3000 rpm for 5 minutes. Measure and record the absorbance at 546 nm. According to the standard curve of phenol red, the excretion of phenol red was calculated.
Record the time point of oral administration, the time point of intraperitoneal injection of 2.5% phenol red solution, and the time point of taking the trachea respectively; The absorbance of each group of samples was measured by the microplate reader at 546 nm, Calculate the excretion of phenol red according to the standard curve of phenol red. Calculate the mean and standard error of the data in each group, and use TTEST to compare the solvent control group with other groups, and P<0.05 is considered as a significant difference.

[4] = system: yeast-induced fever model in rats; assay: Yeast-induced fever model in SD rats; type: in vivo; conditions: for Body temperature 2 hours after modeling / Body temperature 4 hours after modeling / Body temperature 6 hours after modeling / Body temperature 8 hours after modeling: 20% yeast s.c., SD rats
Description: • Medicines: yeast (OXOID LP0021), aspirin (SIGMA A2093), protein BD-6; • Instruments: electronic balance (SARTORIUS BP121S type), electronic clinical thermometer (CITIZEN CT-513W type). • Experiment grouping: • Normal control group; • Model group: yeast fever model; • Positive control group: Aspirin 300 mg/kg group; • Protein BD-6, 10 mg/kg group, 50 mg/kg group.
Preparation of experimental animals: After the experimental animals adapt to the experimental environment (temperature 22° C.±2° C., relative humidity 50%±2%) for 1 day. Pre-adaptation to measure rectal temperature at 8:00 and 15:00, rats were fasted and water was taken freely 12 h before experiment, and let the animal to empty its feces before measuring the rectal temperature. Apply petroleum jelly to the electronic thermometer probe before each temperature measurement. Insert the rat rectum 2 cm (can be marked at 2 cm to ensure that the depth of each insertion is consistent), and record the body temperature after the reading is stable.
Subcutaneous injection of dry yeast to replicate rat fever model: The body temperature of the rats was measured before modeling. Qualified rats with a body temperature of 36.2-37.3° C. were selected and randomly divided into groups with 8 rats in each group. After oral administration of aspirin and different doses of protein BD-6, 20% yeast suspension (10 ml/kg) was injected subcutaneously immediately, and the normal control group was injected intraperitoneally with an equal volume of normal saline. The body temperatures of the rats were monitored after 2 hours for a total of 8 hours.
According to the body temperature measured at each time point on the day of the experiment, calculate the mean, standard deviation and standard error of the body temperature of each group of rats. The data of each group was compared with TTEST, and P<0.05 was considered as a significant difference.

B1: BD-6: recombinant keratin with the amino acid sequence SEQ ID NO:1, expressed in E. coli, about 45 kD; protein of Example 4 (protein, listed as Bos taurus)
chain: MTTTIRHFSSGSIKGSSGLAGGSSRSCRVSGSLGGGSCRLGSAGGLGSGLGGSSYSSCYSFGSGGSYGSGGYVSGGYGGGFGGVDGLLVGGEKATMQNLNDRLASYLDKVRALEEANTELELKIRDWYQKQAPGPAPDYSSYFKTIEDLRNKIHTATVDNANLLLQIDNARLAADDFRTKFETEQALRVSVEADINGLRRVLDELTLARADLEMQIENLKEELAYLRKNHEEEMKALRGQVGGEINVEMDAAPGVDLSRILNEMRDQYEKMAEKNRKDAEDWFFSKTEELNREVATNSELVQSGKSEISELRRTLQALEIELQSQLSMKASLEGSLAETENRYCMQLSQIQGLIGSVEEQLAQLRCEMEQQNQEYKILLDVKTRLEQEIATYRRLLEGEDAHLTQYKTKEPVTTRQVRTIVEEVQDGRVISSREQVHQTSH
Cases of deaths ([1]; BD-6 50 mg/kg intragastric): 0 | Grade IV seizure rate ([1]; BD-6 50 mg/kg intragastric): 40% | mortality rate ([1]; BD-6 50 mg/kg intragastric): 0 | Cases of Grade IV ([1]; BD-6 50 mg/kg intragastric): 4 | Grade II seizure incubation period ([1]; BD-6 50 mg/kg intragastric): 110±7^∗ s | Grade III seizure incubation period ([1]; BD-6 50 mg/kg intragastric): 169±9^∗ s | Grade IV seizure incubation period ([1]; BD-6 50 mg/kg intragastric): 1439±155^∗ s | Incubation period of epilepsy Grade II, III and IV vs model group (in words) ([1]; BD-6 50 mg/kg, PLO model): statistically different from the model group | Cases of deaths ([1]; BD-6 200 mg/kg intragastric): 0 | Grade IV seizure rate ([1]; BD-6 200 mg/kg intragastric): 50% | mortality rate ([1]; BD-6 200 mg/kg intragastric): 0 | Cases of Grade IV ([1]; BD-6 200 mg/kg intragastric): 5 | Grade II seizure incubation period ([1]; BD-6 200 mg/kg intragastric): 99 ± 6 s | Grade III seizure incubation period ([1]; BD-6 200 mg/kg intragastric): 157 ± 8 s | Grade IV seizure incubation period ([1]; BD-6 200 mg/kg intragastric): 1279 ± 181 s | Frequency of writhing ([2]; BD-6 50 mg/kg oral): 31.1±3.7 times | Writhing incubation period ([2]; BD-6 50 mg/kg oral): 220.7 ± 22.2 s | Frequency of writhing ([2]; BD-6 200 mg/kg oral): 18.6±2.7^∗∗ times | Writhing incubation period ([2]; BD-6 200 mg/kg oral): 193.2 ± 17.3 s | Times of writhing vs model group (in words) ([2]; BD-6 200 mg/kg, P<0.05): can significantly reduce the times of writhing in mice | Excretion of phenol red vs solvent control (in words) ([3]; BD-6 20 mg/kg and 50 mg/kg, P<0.05): significantly increased the excretion of phenol red | Phenol red excretion ([3]; BD-6 20 mg/kg oral): 0.789±0.115^∗ µg/ml | Phenol red excretion ([3]; BD-6 50 mg/kg oral): 0.855±0.085^∗∗ µg/ml | Body temperature 2 hours after modeling ([4]; BD-6 10 mg/kg oral): 37.0±0.1 °C | Body temperature 4 hours after modeling ([4]; BD-6 10 mg/kg oral): 37.4±0.1 °C | Body temperature 6 hours after modeling ([4]; BD-6 10 mg/kg oral): 37.3±0.09 °C | Body temperature 8 hours after modeling ([4]; BD-6 10 mg/kg oral): 37.5±0.1 °C | Body temperature 2 hours after modeling ([4]; BD-6 50 mg/kg oral): 37.0±0.2 °C | Body temperature 4 hours after modeling ([4]; BD-6 50 mg/kg oral): 37.4±0.1 °C | Body temperature 6 hours after modeling ([4]; BD-6 50 mg/kg oral): 37.4±0.1 °C | Body temperature 8 hours after modeling ([4]; BD-6 50 mg/kg oral): 37.3±0.1 °C | Effect on increase in body temperature (in words) ([4]; BD-6 10 and 50 mg/kg, most time points after modeling, P<0.05 vs model group): can inhibit the increase in body temperature of model rats to varying degrees

Reference: patent publication US20230287068A1, “KERATIN BD-6, PREPARATION METHOD THEREFOR AND PHARMACEUTICAL COMPOSITION AND USE THEREOF” (INSTITUTE OF MATERIAL MEDICA, CHINESE ACADEMY OF MEDICAL …, priority 2019, published 2023)
